These results are taken from US20130064825A1.

Experiment [1] deals with cynomolgus monkey PCSK9, V5-6xHIS tagged (cynomolgus monkey). Briefly: KinExA solution equilibrium, PCSK9-coated beads. Background: A kinetic exclusion assay measures how much of one partner remains free in solution.
Experiment [2] shares this target. Put plainly: SPR (Biacore 2000), antibody amine-coupled on CM5 chip, PCSK9 injected, pH 7.4.

The Kd is a measure of binding affinity in units of concentration. 31H4, anti-PCSK9 huIgG4 (antibody): the Kd in experiment [1] was determined as 2 pM; in experiment [2], 190 pM.
